Measured values: patent US20050119186A1, “Potent peptide inhibitors and methods of use” (priority 2003, published 2005)
Positions of bridges follow the written chain, without caps; N, C: chain ends. Residues, ends and D or L forms follow the SMILES beside them. No end group written: not given here.

What follows are molecules tested against T1, intercellular adhesion molecule-1 (ICAM-1) (human, UniProt P05362 28-532) (assay: cell-based or functional assay). Settings: not given.
T1 sequence (P05362 28-532): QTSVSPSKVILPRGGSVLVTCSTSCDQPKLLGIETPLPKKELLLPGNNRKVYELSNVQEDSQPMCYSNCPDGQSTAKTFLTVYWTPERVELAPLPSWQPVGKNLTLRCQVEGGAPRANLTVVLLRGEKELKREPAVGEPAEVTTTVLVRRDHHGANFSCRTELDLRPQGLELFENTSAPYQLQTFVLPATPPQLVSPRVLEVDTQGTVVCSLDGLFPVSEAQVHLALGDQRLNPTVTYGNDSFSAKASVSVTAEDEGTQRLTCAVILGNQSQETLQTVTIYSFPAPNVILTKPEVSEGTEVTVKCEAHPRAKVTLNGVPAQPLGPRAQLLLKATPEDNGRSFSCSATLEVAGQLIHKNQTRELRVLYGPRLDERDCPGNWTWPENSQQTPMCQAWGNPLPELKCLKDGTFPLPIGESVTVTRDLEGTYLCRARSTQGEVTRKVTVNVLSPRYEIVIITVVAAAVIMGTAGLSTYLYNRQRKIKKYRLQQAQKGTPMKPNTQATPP

Actual IC50 value (µm), cellular assays [µM]	Molecule
23	CASKMRSAC (disulfide 1-9) [Table 7 peptide 2, CASKMRSAC (SEQ ID NO:2)]
28	CILKMRSVC (disulfide 1-9) [Table 7 peptide 10, CILKMRSVC (SEQ ID NO:10)]

Target: T1, intercellular adhesion molecule-1 …
Assay: cell-based or functional assay
Settings: not given
Remark: another data set of the same source

Experimental IC50 (µM), cellular aggregation blocking assay [µM]	Molecule
480	CLLRMRSAC (disulfide 1-9) [Table 1 peptide 1, CLLRMRSAC (SEQ ID NO:21)]
720	CLIRMRSAC (disulfide 1-9) [Table 1 peptide 4, CLIRMRSAC (SEQ ID NO:24)]
90	CLLRMKSAC (disulfide 1-9) [Table 1 peptide 7, CLLRMKSAC (SEQ ID NO:27)]
> 1000	CLLRMASIC (disulfide 1-9) [Table 1 peptide 14, CLLRMASIC (SEQ ID NO:34)]
580	CLLRMRSIC (disulfide 1-9) [Table 1 peptide 10, CLLRMRSIC (SEQ ID NO:30)]
105	CLLKMRSAC (disulfide 1-9) [Table 1 peptide 6, CLLKMRSAC (SEQ ID NO:26)]
> 1000	CLARMRSIC (disulfide 1-9) [Table 1 peptide 12, CLARMRSIC (SEQ ID NO:32)]
> 1000	CALRMRSIC (disulfide 1-9) [Table 1 peptide 11, CALRMRSIC (SEQ ID NO:31)]
710	CLLRMRAIC (disulfide 1-9) [Table 1 peptide 15, CLLRMRAIC (SEQ ID NO:35)]
40	CILKMKSAC (disulfide 1-9) [Table 1 peptide 16, CILKMKSAC (SEQ ID NO:36)]
> 1000	CLLRMRSLC (disulfide 1-9) [Table 1 peptide 8, CLLRMRSLC (SEQ ID NO:28)]
> 1000	CLVRMRSAC (disulfide 1-9) [Table 1 peptide 5, CLVRMRSAC (SEQ ID NO:25)]
700	CLLRMRSVC (disulfide 1-9) [Table 1 peptide 9, CLLRMRSVC (SEQ ID NO:29)]
> 1000	CVLRMRSAC (disulfide 1-9) [Table 1 peptide 3, CVLRMRSAC (SEQ ID NO:23)]

These molecules were tested against T2, ICAM-1/LFA-1 (Homo sapiens, UniProt P05362) (assay: cellular aggregation blocking assay (LFA-1/ICAM-1 dependent cell aggregation)). Settings: Table 1; class by experimental IC50; read-out: Inhibitor strength.
T2 construct: endogenous in cells
Assay type: cell-based
Text: The inhibitory compound tested was a cyclic peptide containing nine amino acids that bind to ICAM-1, thereby inhibiting LFA-1/ICAM-1 binding. Using alanine replacement and homologous amino acid substitutions, we identified residues strategic to the antagonist activity were identified. A small set of such derived peptides was used as a training set for the inverse-QSAR. The activity or potency of the peptides is associated with an IC50 value, which measures the concentration that leads to half-maximal inhibition of receptor to ligand. Table 1, below, lists the amino acid sequence of sixteen such derived peptides with their IC50 values (given in μM), determined using a cellular aggregation blocking assay (J. Shannon, D. C. Brown, M. Silva, R. S. Larson, A cyclic peptide inhibits LFA-1/ICAM-1 mediated cell aggregation, J. Pept. Res. (2001) 1-14, L. Sillerud, E. Burks, D. C. Brown, R. S. Larson, NMR-derived solution model of potent ICAM-1 inhibitory peptide, J. Pept. 62 (2003) 97-116).
In brief, the aggregation of a cell line dependent on LFA-1 binding to ICAM-1 was used to measure the inhibitory capacity of each peptide. Inhibitory peptides and cells were seeded in flat-bottomed microtiter plates and allowed to aggregate. The number of aggregates and total number of free (single) cells were counted using inverted phase microscopy. The percent aggregation, P, was determined as P=100(1−F/I) (1) where F is the final number of free cells and I is the initial number of free cells. This percent aggregation was then used to calculate the percent inhibition, Pi as follows Pi=100(1−Pip/Pc) (2) where Pip is the percent aggregation with inhibitory peptide and Pc is the percent aggregation in the control experiment. The IC50 values were calculated from a line fit to the percent inhibition data as a function of inhibitory peptide concentration over the range from 10 μM to 1 mM. Each condition was performed in duplicate while each experiment was performed a minimum of three times.

T2 sequence (P05362 28-532): as above

IC50 [µM]	Molecule
500 to 1000	CC[C@H](C)[C@@H]1NC(=O)[C@H](CC(C)C)NC(=O)[C@@H](N)CSSC[C@@H](C(=O)O)NC(=O)[C@H](C)NC(=O)[C@H](CO)NC(=O)[C@H](CCCNC(=N)N)NC(=O)[C@H](CCSC)NC(=O)[C@H](CCCNC(=N)N)NC1=O [Peptide 4] (H-CLIRMRSAC-OH; disulfide 1-9)
≤ 500	CC[C@H](C)[C@@H]1NC(=O)[C@@H](N)CSSC[C@@H](C(=O)O)NC(=O)[C@H](C)NC(=O)[C@H](CO)NC(=O)[C@H](CCCCN)NC(=O)[C@H](CCSC)NC(=O)[C@H](CCCCN)NC(=O)[C@H](CC(C)C)NC1=O [Peptide 16] (H-CILKMKSAC-OH; disulfide 1-9)

Same assay, conditions: Table 1; peptide 10 μM to 1 mM; inhibition of cell aggregation; read-out: Experimental IC50

IC50 [µM]	Molecule
720	CC[C@H](C)[C@@H]1NC(=O)[C@H](CC(C)C)NC(=O)[C@@H](N)CSSC[C@@H](C(=O)O)NC(=O)[C@H](C)NC(=O)[C@H](CO)NC(=O)[C@H](CCCNC(=N)N)NC(=O)[C@H](CCSC)NC(=O)[C@H](CCCNC(=N)N)NC1=O [Peptide 4] (H-CLIRMRSAC-OH; disulfide 1-9)

Same assay, conditions: strongest inhibitor in the training set; read-out: IC50 value

IC50 [µM]	Molecule
40	CC[C@H](C)[C@@H]1NC(=O)[C@@H](N)CSSC[C@@H](C(=O)O)NC(=O)[C@H](C)NC(=O)[C@H](CO)NC(=O)[C@H](CCCCN)NC(=O)[C@H](CCSC)NC(=O)[C@H](CCCCN)NC(=O)[C@H](CC(C)C)NC1=O [Peptide 16] (H-CILKMKSAC-OH; disulfide 1-9)
